Source: publication PMC2173397

Biological target: T1, Apaf-1 (human (endogenous in HeLa)), O14727
T1 chain: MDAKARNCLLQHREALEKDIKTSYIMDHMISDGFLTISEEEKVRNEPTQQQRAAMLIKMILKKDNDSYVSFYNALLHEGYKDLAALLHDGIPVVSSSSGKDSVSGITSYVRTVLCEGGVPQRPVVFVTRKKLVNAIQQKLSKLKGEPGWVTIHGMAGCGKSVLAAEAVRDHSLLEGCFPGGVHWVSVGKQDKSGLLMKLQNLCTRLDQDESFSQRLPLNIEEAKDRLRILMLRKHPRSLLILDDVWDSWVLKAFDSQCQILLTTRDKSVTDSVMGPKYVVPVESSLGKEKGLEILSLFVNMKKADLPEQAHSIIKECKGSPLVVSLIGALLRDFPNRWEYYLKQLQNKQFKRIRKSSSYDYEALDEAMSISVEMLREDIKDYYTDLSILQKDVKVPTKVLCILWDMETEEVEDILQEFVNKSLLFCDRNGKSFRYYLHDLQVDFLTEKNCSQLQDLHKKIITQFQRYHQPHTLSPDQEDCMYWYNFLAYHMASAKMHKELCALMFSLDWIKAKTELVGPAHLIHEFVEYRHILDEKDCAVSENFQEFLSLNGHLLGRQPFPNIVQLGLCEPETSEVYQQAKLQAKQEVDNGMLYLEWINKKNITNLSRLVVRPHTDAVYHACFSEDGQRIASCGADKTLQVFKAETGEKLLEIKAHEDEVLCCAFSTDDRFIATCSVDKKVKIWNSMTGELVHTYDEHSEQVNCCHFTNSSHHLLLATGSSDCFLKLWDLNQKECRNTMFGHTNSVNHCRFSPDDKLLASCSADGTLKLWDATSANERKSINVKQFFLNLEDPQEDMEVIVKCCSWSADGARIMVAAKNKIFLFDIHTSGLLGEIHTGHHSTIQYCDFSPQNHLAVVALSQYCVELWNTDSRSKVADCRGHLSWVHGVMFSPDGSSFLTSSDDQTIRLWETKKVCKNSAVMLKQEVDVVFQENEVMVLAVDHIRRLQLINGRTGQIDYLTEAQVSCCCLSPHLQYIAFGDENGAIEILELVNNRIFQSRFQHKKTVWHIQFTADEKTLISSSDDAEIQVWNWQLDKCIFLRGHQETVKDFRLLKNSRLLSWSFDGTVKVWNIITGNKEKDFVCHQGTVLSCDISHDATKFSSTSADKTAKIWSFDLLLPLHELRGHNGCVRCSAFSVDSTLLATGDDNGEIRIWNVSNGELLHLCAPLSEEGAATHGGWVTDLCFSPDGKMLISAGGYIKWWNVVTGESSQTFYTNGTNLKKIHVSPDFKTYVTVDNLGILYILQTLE
Assay: SEC
Details: remark: other sources report otherwise

percent recruited to the high Mr complex: 50%
B1: caspase-9, P55211 1-416 (natural protein)
chain: MDEADRRLLRRCRLRLVEELQVDQLWDALLSRELFRPHMIEDIQRAGSGSRRDQARQLIIDLETRGSQALPLFISCLEDTGQDMLASFLRTNRQAAKLSKPTLENLTPVVLRPEIRKPEVLRPETPRPVDIGSGGFGDVGALESLRGNADLAYILSMEPCGHCLIINNVNFCRESGLRTRTGSNIDCEKLRRRFSSLHFMVEVKGDLTAKKMVLALLELAQQDHGALDCCVVVILSHGCQASHLQFPGAVYGTDGCPVSVEKIVNIFNGTSCPSLGGKPKLFFIQACGGEQKDHGFEVASTSPEDESPGSNPEPDATPFQEGLRTFDQLDAISSLPTPSDIFVSYSTFPGFVSWRDPKSGSWYVETLDDIFEQWAHSEDLQSLLLRVANAVSVKGIYKQMPGCFNFLRKKLFFKTS
